Patent US20060078537A1

Target: human CCR5 (human) (UniProt P51681)
Test: cell-based or functional assay

human CCR5 (human), sequence (P51681 whole entry): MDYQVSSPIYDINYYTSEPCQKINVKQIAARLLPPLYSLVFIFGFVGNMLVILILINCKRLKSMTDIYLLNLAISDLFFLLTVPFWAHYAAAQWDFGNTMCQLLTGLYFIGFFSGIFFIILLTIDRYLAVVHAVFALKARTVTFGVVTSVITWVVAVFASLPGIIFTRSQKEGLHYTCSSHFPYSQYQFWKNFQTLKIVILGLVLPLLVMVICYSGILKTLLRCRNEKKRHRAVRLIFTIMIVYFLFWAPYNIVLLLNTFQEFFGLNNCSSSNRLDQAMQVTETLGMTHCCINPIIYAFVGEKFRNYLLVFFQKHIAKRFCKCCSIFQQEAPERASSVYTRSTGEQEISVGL

CCR5 receptor downmodulation on CHO cells expressing CCR5 (FACS) at 1 nM AOP-RANTES: 50%
CCR5 receptor downmodulation on CHO cells expressing CCR5 (FACS) at 100 nM AOP-RANTES: 90%
Substance: AOP-RANTES (from UniProt P13501 24-91) (ligand)
